Test results as given in PMC9071441.

Target: mNeonGreen-tagged T-bet DNA binding domain (aa 135-326) Q160A (mouse) (UniProt Q9JKD8)
Test: FRET or BRET; flow-cytometric FRET in HEK293T cells co-transfected with 730 ng of each vector for mTagBFP- and mNeonGreen-tagged proteins; read 32 hours after transfection; 405 nm laser line, 530/30 bandpass filter; DFRET efficiency

Chain of mTagBFP-tagged GATA3 DNA binding domain (aa 259-369) (P23772 259-369): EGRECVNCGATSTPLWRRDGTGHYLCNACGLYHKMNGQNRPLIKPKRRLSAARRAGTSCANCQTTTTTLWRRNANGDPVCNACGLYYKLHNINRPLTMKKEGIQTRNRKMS
Chain of mNeonGreen-tagged T-bet DNA binding domain (aa 135-326) Q160A (mouse) (Q9JKD8 135-326, stated change not applied): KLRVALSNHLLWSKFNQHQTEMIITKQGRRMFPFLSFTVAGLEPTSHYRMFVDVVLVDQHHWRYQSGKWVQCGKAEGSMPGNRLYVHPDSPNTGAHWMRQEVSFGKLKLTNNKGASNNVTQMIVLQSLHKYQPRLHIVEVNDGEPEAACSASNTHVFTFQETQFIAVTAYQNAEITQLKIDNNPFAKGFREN

- reduction of the FRET interaction signal against WT T-bet DBD: 50%
Substance: mTagBFP-tagged GATA3 DNA binding domain (aa 259-369) (from UniProt P23772 259-369) (domain or fragment)
